Publication PMC4868535, “A G-protein activation cascade from Arl13B to Arl3 and implications for ciliary targeting of lipidated proteins” (eLife, 2015)

Experiments:
[1] = molecular target: T1, CrArl13B 18-278 (Chlamydomonas reinhardtii, UniProt A8INQ0); experiment: nucleotide loading (HPLC) and GEF activity of the loaded protein; assay type: binding; settings: 5 mM MgCl2, pH 7.5, 20°C
T1 construct: gene ARL13; residues 18-278 (G-domain plus C-terminal helix), expressed in E. coli as GST fusion
T1 sequence (A8INQ0 18-278): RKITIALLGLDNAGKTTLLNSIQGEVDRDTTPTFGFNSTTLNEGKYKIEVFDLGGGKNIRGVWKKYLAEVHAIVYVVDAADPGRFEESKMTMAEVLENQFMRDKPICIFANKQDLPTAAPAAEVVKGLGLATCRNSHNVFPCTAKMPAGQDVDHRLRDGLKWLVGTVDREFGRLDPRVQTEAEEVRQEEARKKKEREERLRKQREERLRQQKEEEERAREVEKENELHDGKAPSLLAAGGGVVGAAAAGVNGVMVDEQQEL

[2] = molecular target: T2, CrArl13B-CrArl3 complex (CrArl13B nucleotide site) (Chlamydomonas reinhardtii, UniProt A8INQ0); experiment: X-ray crystal structure […] Å; assay type: binding; settings: Mg2+; nucleotide site of CrArl13B
T2 construct: gene ARL13; crystal complex, one in asymmetric unit; last 58 residues of CrArl13B not visible; from E. coli; with ADP-ribosylation factor-like protein 3
T2 sequence (A8INQ0 18-278): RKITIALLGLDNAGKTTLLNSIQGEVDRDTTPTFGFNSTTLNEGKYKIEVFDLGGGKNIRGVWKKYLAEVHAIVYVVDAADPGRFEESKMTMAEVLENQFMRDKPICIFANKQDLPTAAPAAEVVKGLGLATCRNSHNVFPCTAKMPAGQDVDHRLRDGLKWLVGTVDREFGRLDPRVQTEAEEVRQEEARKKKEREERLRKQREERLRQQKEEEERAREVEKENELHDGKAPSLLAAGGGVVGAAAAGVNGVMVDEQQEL
T2 sequence (A8ISN6 2-177 partner): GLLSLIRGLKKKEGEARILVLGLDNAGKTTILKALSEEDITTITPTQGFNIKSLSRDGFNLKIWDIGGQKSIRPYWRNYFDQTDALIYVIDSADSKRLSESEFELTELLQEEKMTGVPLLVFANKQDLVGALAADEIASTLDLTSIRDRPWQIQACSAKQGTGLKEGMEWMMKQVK

[3] = molecular target: T3, CrArl13B-CrArl3 complex (CrArl3 nucleotide site) (Chlamydomonas reinhardtii, UniProt A8ISN6); experiment: X-ray crystal structure […] Å; assay type: binding; settings: Mg2+; nucleotide site of CrArl3; post-nucleotide-exchange state
T3 construct: gene ARL3; crystal complex, one in asymmetric unit; last 58 residues of CrArl13B not visible; from E. coli; with ADP-ribosylation factor-like protein 13B
T3 sequence (A8ISN6 2-177 limits assumed): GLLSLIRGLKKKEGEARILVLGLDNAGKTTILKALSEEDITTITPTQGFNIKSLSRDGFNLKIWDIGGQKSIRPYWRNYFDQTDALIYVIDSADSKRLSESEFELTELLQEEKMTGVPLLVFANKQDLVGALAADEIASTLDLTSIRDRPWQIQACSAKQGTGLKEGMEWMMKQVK
T3 sequence (A8INQ0 18-278 partner): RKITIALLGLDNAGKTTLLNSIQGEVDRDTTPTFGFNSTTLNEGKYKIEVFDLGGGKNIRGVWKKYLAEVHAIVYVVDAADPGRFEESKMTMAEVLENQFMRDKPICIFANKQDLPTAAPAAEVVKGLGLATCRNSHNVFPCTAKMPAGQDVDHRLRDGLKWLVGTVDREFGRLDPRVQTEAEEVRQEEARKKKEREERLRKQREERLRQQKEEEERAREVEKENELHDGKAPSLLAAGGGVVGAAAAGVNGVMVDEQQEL

[4] = molecular target: CrArl3 (Chlamydomonas reinhardtii)
[5] = molecular target: CrArl3 (Chlamydomonas reinhardtii); remark: listed apart in the source
[6] = molecular target: CrArl3 (Chlamydomonas reinhardtii); remark: listed apart in the source
[7] = molecular target: CrArl3 D146R (Chlamydomonas reinhardtii)
[8] = molecular target: CrArl3 D103R (Chlamydomonas reinhardtii)

## Nc1nc2c(ncn2[C@@H]2O[C@H](COP(=O)(O)OP(=O)(O)O)[C@@H](O)[C@H]2O)c(=O)[nH]1 [GDP]
[1]; GDP-bound state compared by GEF activity on CrArl3·mantGDP
  nucleotide loading (HPLC) and GEF activity of the loaded protein: CrArl13B preloaded with GDP, GTP, or GppNHp was used to analyze the exchange activity

## Nc1nc2c(ncn2[C@@H]2O[C@H](COP(=O)(O)OP(=O)(O)OP(=O)(O)O)[C@@H](O)[C@H]2O)c(=O)[nH]1 [GTP]
[1]; GTP-bound state compared by GEF activity on CrArl3·mantGDP
  nucleotide loading (HPLC) and GEF activity of the loaded protein: CrArl13B preloaded with GDP, GTP, or GppNHp was used to analyze the exchange activity

## Nc1nc2c(ncn2[C@@H]2O[C@H](COP(=O)(O)OP(=O)(O)NP(=O)(O)O)[C@@H](O)[C@H]2O)c(=O)[nH]1 [GppNHp]
[2]
  X-ray crystal structure 2.5 Å: GppNHp was clearly visible in both active sites
[3]
  X-ray crystal structure 2.5 Å: GppNHp was clearly visible in both active sites

B1: CrArl13B △233 (18–232) (domain or fragment)
chain: RKITIALLGLDNAGKTTLLNSIQGEVDRDTTPTFGFNSTTLNEGKYKIEVFDLGGGKNIRGVWKKYLAEVHAIVYVVDAADPGRFEESKMTMAEVLENQFMRDKPICIFANKQDLPTAAPAAEVVKGLGLATCRNSHNVFPCTAKMPAGQDVDHRLRDGLKWLVGTVDREFGRLDPRVQTEAEEVRQEEARKKKEREERLRKQREERLRQQKEEE
[4]
  Kobs of nucleotide release from CrArl3 wt with 5 µM CrArl13B △233 (GEF assay, deletion constructs): 0.005 s⁻¹

B2: CrArl13B △243 (18–242) (domain or fragment)
chain: RKITIALLGLDNAGKTTLLNSIQGEVDRDTTPTFGFNSTTLNEGKYKIEVFDLGGGKNIRGVWKKYLAEVHAIVYVVDAADPGRFEESKMTMAEVLENQFMRDKPICIFANKQDLPTAAPAAEVVKGLGLATCRNSHNVFPCTAKMPAGQDVDHRLRDGLKWLVGTVDREFGRLDPRVQTEAEEVRQEEARKKKEREERLRKQREERLRQQKEEEERAREVEKEN
[4]
  Kobs of nucleotide release from CrArl3 wt with 5 µM CrArl13B △243 (GEF assay, deletion constructs): 0.0045 s⁻¹

B3: CrArl13B △203 (18–202) (domain or fragment)
chain: RKITIALLGLDNAGKTTLLNSIQGEVDRDTTPTFGFNSTTLNEGKYKIEVFDLGGGKNIRGVWKKYLAEVHAIVYVVDAADPGRFEESKMTMAEVLENQFMRDKPICIFANKQDLPTAAPAAEVVKGLGLATCRNSHNVFPCTAKMPAGQDVDHRLRDGLKWLVGTVDREFGRLDPRVQTEAEEV
[4]
  Kobs of nucleotide release from CrArl3 wt with 5 µM CrArl13B △203 (GEF assay, deletion constructs): 0.0001 s⁻¹

B4: CrArl13B △213 (18–212) (domain or fragment)
chain: RKITIALLGLDNAGKTTLLNSIQGEVDRDTTPTFGFNSTTLNEGKYKIEVFDLGGGKNIRGVWKKYLAEVHAIVYVVDAADPGRFEESKMTMAEVLENQFMRDKPICIFANKQDLPTAAPAAEVVKGLGLATCRNSHNVFPCTAKMPAGQDVDHRLRDGLKWLVGTVDREFGRLDPRVQTEAEEVRQEEARKKKE
[4]
  Kobs of nucleotide release from CrArl3 wt with 5 µM CrArl13B △213 (GEF assay, deletion constructs): 0.0001 s⁻¹

B5: CrArl13B △220 (18–219) (domain or fragment)
chain: RKITIALLGLDNAGKTTLLNSIQGEVDRDTTPTFGFNSTTLNEGKYKIEVFDLGGGKNIRGVWKKYLAEVHAIVYVVDAADPGRFEESKMTMAEVLENQFMRDKPICIFANKQDLPTAAPAAEVVKGLGLATCRNSHNVFPCTAKMPAGQDVDHRLRDGLKWLVGTVDREFGRLDPRVQTEAEEVRQEEARKKKEREERLRK
[4]
  Kobs of nucleotide release from CrArl3 wt with 5 µM CrArl13B △220 (GEF assay, deletion constructs): 0.0011 s⁻¹

B6: CrArl13B^18-–278 (domain or fragment)
chain: RKITIALLGLDNAGKTTLLNSIQGEVDRDTTPTFGFNSTTLNEGKYKIEVFDLGGGKNIRGVWKKYLAEVHAIVYVVDAADPGRFEESKMTMAEVLENQFMRDKPICIFANKQDLPTAAPAAEVVKGLGLATCRNSHNVFPCTAKMPAGQDVDHRLRDGLKWLVGTVDREFGRLDPRVQTEAEEVRQEEARKKKEREERLRKQREERLRQQKEEEERAREVEKENELHDGKAPSLLAAGGGVVGAAAAGVNGVMVDEQQEL
[5]
  Kobs of mantGDP release from 500 nM CrArl3 with 5 µM CrArl13B·GDP (GEF assay): 0.0009 s⁻¹
  Kobs of mantGDP release from 500 nM CrArl3 with 5 µM CrArl13B·GTP (GEF assay): 0.006 s⁻¹
  Kobs of mantGDP release from 500 nM CrArl3 with 5 µM CrArl13B·GppNHp (GEF assay): 0.0078 s⁻¹
[6]
  KM of the GEF reaction (kobs of mantGDP release from 500 nM CrArl3 against GEF concentration) for CrArl13B·GDP: 155 µM
  KM of the GEF reaction (kobs of mantGDP release from 500 nM CrArl3 against GEF concentration) for CrArl13B·GTP: 1.1 µM
[7]
  Kobs of nucleotide release from CrArl3 D146R·mantGppNHp with 5 µM CrArl13B wt (GEF assay): 0.00014 s⁻¹
[4]
  Kobs of nucleotide release from 500 nM CrArl3·mantGppNHp with 5 µM CrArl13B wt (GEF assay, switch interface mutants): 0.0091 s⁻¹
  Kobs of nucleotide release from CrArl3 wt with 5 µM CrArl13B 18-278 (GEF assay, deletion constructs): 0.0066 s⁻¹
  Kobs of nucleotide release from CrArl3 wt·mantGppNHp with 5 µM CrArl13B wt (GEF assay, charge reversal interface mutants): 0.0085 s⁻¹
[8]
  Kobs of nucleotide release from CrArl3 D103R·mantGppNHp with 5 µM CrArl13B wt (GEF assay): 0.00014 s⁻¹

B7: CrArl13B^F53A (18-278) (domain or fragment)
chain: RKITIALLGLDNAGKTTLLNSIQGEVDRDTTPTFGANSTTLNEGKYKIEVFDLGGGKNIRGVWKKYLAEVHAIVYVVDAADPGRFEESKMTMAEVLENQFMRDKPICIFANKQDLPTAAPAAEVVKGLGLATCRNSHNVFPCTAKMPAGQDVDHRLRDGLKWLVGTVDREFGRLDPRVQTEAEEVRQEEARKKKEREERLRKQREERLRQQKEEEERAREVEKENELHDGKAPSLLAAGGGVVGAAAAGVNGVMVDEQQEL
[4]
  Kobs of nucleotide release from 500 nM CrArl3·mantGppNHp with 5 µM CrArl13B F53A (GEF assay): 0.00042 s⁻¹

B8: CrArl13B D46A (18-278) (domain or fragment)
chain: RKITIALLGLDNAGKTTLLNSIQGEVDRATTPTFGFNSTTLNEGKYKIEVFDLGGGKNIRGVWKKYLAEVHAIVYVVDAADPGRFEESKMTMAEVLENQFMRDKPICIFANKQDLPTAAPAAEVVKGLGLATCRNSHNVFPCTAKMPAGQDVDHRLRDGLKWLVGTVDREFGRLDPRVQTEAEEVRQEEARKKKEREERLRKQREERLRQQKEEEERAREVEKENELHDGKAPSLLAAGGGVVGAAAAGVNGVMVDEQQEL
[4]
  Kobs of nucleotide release from 500 nM CrArl3·mantGppNHp with 5 µM CrArl13B D46A (GEF assay): 0.0041 s⁻¹

B9: CrArl13B Y83A (18-278) (domain or fragment)
chain: RKITIALLGLDNAGKTTLLNSIQGEVDRDTTPTFGFNSTTLNEGKYKIEVFDLGGGKNIRGVWKKALAEVHAIVYVVDAADPGRFEESKMTMAEVLENQFMRDKPICIFANKQDLPTAAPAAEVVKGLGLATCRNSHNVFPCTAKMPAGQDVDHRLRDGLKWLVGTVDREFGRLDPRVQTEAEEVRQEEARKKKEREERLRKQREERLRQQKEEEERAREVEKENELHDGKAPSLLAAGGGVVGAAAAGVNGVMVDEQQEL
[4]
  Kobs of nucleotide release from 500 nM CrArl3·mantGppNHp with 5 µM CrArl13B Y83A (GEF assay): 0.0009 s⁻¹

B10: CrArl13B H154W (18-278) (domain or fragment)
chain: RKITIALLGLDNAGKTTLLNSIQGEVDRDTTPTFGFNSTTLNEGKYKIEVFDLGGGKNIRGVWKKYLAEVHAIVYVVDAADPGRFEESKMTMAEVLENQFMRDKPICIFANKQDLPTAAPAAEVVKGLGLATCRNSWNVFPCTAKMPAGQDVDHRLRDGLKWLVGTVDREFGRLDPRVQTEAEEVRQEEARKKKEREERLRKQREERLRQQKEEEERAREVEKENELHDGKAPSLLAAGGGVVGAAAAGVNGVMVDEQQEL
[4]
  Kobs of nucleotide release from CrArl3 wt·mantGppNHp with 5 µM CrArl13B H154W (GEF assay): 0.0088 s⁻¹

B11: CrArl13B F51A (18-278) (domain or fragment)
chain: RKITIALLGLDNAGKTTLLNSIQGEVDRDTTPTAGFNSTTLNEGKYKIEVFDLGGGKNIRGVWKKYLAEVHAIVYVVDAADPGRFEESKMTMAEVLENQFMRDKPICIFANKQDLPTAAPAAEVVKGLGLATCRNSHNVFPCTAKMPAGQDVDHRLRDGLKWLVGTVDREFGRLDPRVQTEAEEVRQEEARKKKEREERLRKQREERLRQQKEEEERAREVEKENELHDGKAPSLLAAGGGVVGAAAAGVNGVMVDEQQEL
[4]
  Kobs of nucleotide release from 500 nM CrArl3·mantGppNHp with 5 µM CrArl13B F51A (GEF assay): 0.002 s⁻¹

B12: CrArl13B N75A (18-278) (domain or fragment)
chain: RKITIALLGLDNAGKTTLLNSIQGEVDRDTTPTFGFNSTTLNEGKYKIEVFDLGGGKAIRGVWKKYLAEVHAIVYVVDAADPGRFEESKMTMAEVLENQFMRDKPICIFANKQDLPTAAPAAEVVKGLGLATCRNSHNVFPCTAKMPAGQDVDHRLRDGLKWLVGTVDREFGRLDPRVQTEAEEVRQEEARKKKEREERLRKQREERLRQQKEEEERAREVEKENELHDGKAPSLLAAGGGVVGAAAAGVNGVMVDEQQEL
[4]
  Kobs of nucleotide release from 500 nM CrArl3·mantGppNHp with 5 µM CrArl13B N75A (GEF assay): 0.0044 s⁻¹
